Tests used:
[1] = system: U2OS cells; assay: Live-cell delivery to U2OS cells, confocal laser scanning microscopy; type: cell-based
[2] = system: HeLa cells; assay: Live-cell delivery to HeLa cells, CLSM and FiJi image analysis; type: cell-based; conditions: CLSM

TAMRA-SUMO2-cR10D [compound 15]
signals in lysosomes or endosomes (punctuates) compared to analogue 14 ([1]; 4 μM in PBS, 37 °C, 45 min, CLSM): significantly fewer signals

TAMRA-Ub(S20C(cR10D))-PA [compound 11]
live-cell delivery (TAMRA signal, CLSM) ([1]; 2 μM in PBS, two independent sets of experiments (Figure S23)): significantly good

TAMRA‐Cys(cR10)‐Ub [compound 7]
endosomal or lysosomal entrapment / cytosolic availability of protein [2]: cytosolic availability of protein was not improved
